# Measurements as given in publication PMC7335907.
# Target: small laccase from Streptomyces coelicolor (SLAC), T1 copper-depleted mutant C288S (SLAC-T1D) (Streptomyces coelicolor) (UniProt Q9XAL8)
# Test: SEC-MALS
substance,measurement,value
"small laccase from Streptomyces coelicolor (SLAC), T1 copper-depleted mutant C288S (SLAC-T1D) (from UniProt Q9XAL8 1-343) (enzyme)",stoichiometry N,3
